Experimental data: US9957308B2, “Method for detecting bilirubin using a fluorescent protein” (RIKEN, priority 2013, dated 2018)

Assay: Measurement of fluorescence spectrum, absorption spectrum, quantum yield and fluorescence lifetime
Assay type: physicochemical
Description: In order to analyze the fluorescent properties of UnaG protein, the fluorescence spectrum, absorption spectrum, and quantum yield were measured. The excitation spectrum and the fluorescence spectrum were measured with a spectrophotofluorometer, RF-5300PC (Shimadzu Corporation), at an excitation wavelength of 475 nm and a fluorescence wavelength of 550 nm. The absorption spectrum was measured with a spectrophotometer, U-2900 (Hitachi High-Technologies Corporation). The quantum yield was measured with an absolute quantum yield measurement system, Quantaurus-QY (Hamamatsu Photonics K.K.) at excitation wavelengths of 470 nm and 480 nm. A known fluorescent protein, EGFP, was similarly measured, and the values were compared to those of UnaG protein.
In order to analyze the fluorescent properties of R82EK84E mutant, the fluorescence spectrum, absorption spectrum, and quantum yield were measured. The measurement was performed by the same method as that described in the above-described paragraph 3. The fluorescence lifetime was measured with a small-sized fluorescence lifetime measurement system, Quantaurus-Tau (Hamamatsu Photonics K.K.) and was compared to that of wild-type UnaG protein.
The fluorescence spectrum, absorption spectrum, and quantum yield (excitation wavelength: 470 nm) were measured for analyzing the fluorescent properties of holo A12ES80N mutant protein. The measurement was performed by the same method as that described in paragraph 3, above. The fluorescent properties were compared to those of wild-type UnaG protein.

[1] = Table 3, wild-type vs R82EK84E mutant
[2] = Table 3, wild-type vs R82EK84E mutant, holo form reconstructed with bilirubin
[3] = Table 4, wild-type vs holo A12ES80N mutant

B1: UnaG: fluorescent polypeptide including the amino acid sequence of SEQ ID NO: 1, originally isolated from Japanese eel; fluoresces in the presence of bilirubin (protein, listed as Anguilla japonica)
chain: MVEKFVGTWKIADSHNFGEYLKAIGAPKELSDGGDATTPTLYISQKDGDKMTVKIENGPPTFLDTQVKFKLGEEFDEFPSDRRKGVKSVVNLVGEKLVYVQKWDGKETTYVREIKDGKLVVTLTMGDVVAVRSYRRATE
**Q.** Which Maximum excitation wavelength (Table 2, UnaG compared to EGFP) does the source give for B1 here?
**A.** 498 nm

**Q.** And the Maximum fluorescence wavelength (Table 2, UnaG compared to EGFP)?
**A.** 527 nm

**Q.** And the Brightness (Table 2, [(Molar extinction coefficient) × (Quantum yield)]/1,000)?
**A.** 39.4

**Q.** What about the Molar extinction coefficient (Table 2, at the maximum excitation wavelength (498 nm UnaG, 490 nm EGFP)) of the same molecule?
**A.** 77,300 (498 nm) M^−1 cm^−1

**Q.** What about the Quantum yield (Table 2, excitation wavelengths 470 nm and 480 nm) of the same molecule?
**A.** 51%

**Q.** What about the Molar extinction coefficient [1] of the same molecule?
**A.** 56,992 M^−1 cm^−1

**Q.** What about the Quantum yield [1] of the same molecule?
**A.** 51%

**Q.** What about the Maximum excitation wavelength [2] of the same molecule?
**A.** 498 nm

**Q.** And the Maximum fluorescence wavelength [2]?
**A.** 527 nm

**Q.** What about the “Fluorescence lifetime (τ1/ns)” value (Table 3, wild-type vs R82EK84E mutant, Quantaurus-Tau) of the same molecule?
**A.** 2.2 ns

**Q.** And the Maximum excitation wavelength [3]?
**A.** 499 nm

**Q.** And the Maximum fluorescence wavelength [3]?
**A.** 527 nm

**Q.** And the Molar extinction coefficient [3]?
**A.** 52,687 M^−1 cm^−1

**Q.** What about the Quantum yield (Table 4, excitation wavelength 470 nm) of the same molecule?
**A.** 53.2%

**Q.** What about the Fluorescence lifetime (main fluorescent properties of UnaG) of the same molecule?
**A.** 2.2 nanosecond
